B1: library; numbered along this chain (parent)
chain: MRKPRAAVGSGHRKQAASQEGRQKHAKNNSQAKPSACDGLARQPEEVVLQASVSSYHLFRDVAEVTAFRGSLLSWYDQEKRDLPWRRRAEDEMDLDRRAYAVWVSEVMLQQTQVATVINYYTGWMQKWPTLQDLASASLEEVNQLWAGLGYYSRGRRLQEGARKVVEELGGHMPRTAETLQQLLPGVGRYTAGAIASIAFGQATGVVDGNVARVLCRVRAIGADPSSTLVSQQLWGLAQQLVDPARPGDFNQAAMELGATVCTPQRPLCSQCPVESLCRARQRVEQEQLLASGSLSGSPDVEECAPNTGQCHLCLPPSEPWDQTLGVVNFPRKASRKPPREESSATCVLEQPGALGAQILLVQRPNSGLLAGLWEFPSVTWEPSEQLQRKALLQELQRWAGPLPATHLRHLGEVVHTFSHIKLTYQVYGLALEGQTPVTTVPPGARWLTQEEFHTAAVSTAMKKVFRVYQGQQPGTCMGSKRSQVSSPCSRKKPRMGQQVLDNFFRSHISTDAHSLNSAAQ

Variants of: B1
Test: 8OG:A repair function score (normalized; synonymous = 0, nonsense = -1) (normalized log-likelihood score); higher = more repair activity (WT-like)
Settings: with 8OG:A DNA repair reporter (GFP) in HEK-293 MUTYH KO cells
Protocol: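 Saturation mutagenesis (NNN codon scan) of the MUTYH cDNA (521-aa nuclear isoform NM_001048174.1 / NP_001041639), stably expressed under doxycycline induction in HEK-293 MUTYH knockout cells. Cells were co-transfected with an 8OG:A-bearing GFP repair reporter plus mCherry and sorted 72 h later into GFP+ and GFP− bins, three replicates per tile. The Rosace log2 enrichment (GFP+ vs GFP−) was converted per tile to a normalized function score with synonymous variants centered at 0 and nonsense variants (codons 1-471) at -1; low-abundance variants were removed.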

Variant	8OG:A repair function score
R2M	-0.169
N307K	-0.0345
L169R	-0.105
L501S	0.0215
Q323Y	-0.013
A245L	0.157
A245F	0.00779
Y76Q	-1.53
Y76F	-0.0268
L313I	-0.156
L158Y	-1.09
E64Q	0.00334
A137Y	-0.928
A137G	-0.176
T424Y	-0.181
Q358I	-0.163
V438G	-0.176
V214W	-0.258
S226K	0.026
S226W	-0.231
A41M	-0.0227
A41R	0.0859
G209A	-0.0943
V207Y	-0.858

Variant	8OG:A repair function score
R81D	-0.524
R81Q	-0.483
Q484K	0.0117
Q484E	0.022
Q484V	-0.0109
A99S	-0.124
A99Q	-2.46
A99T	-0.459
R157I	-0.517
D208G	-1
C304Q	-0.421
M93T	0.00168
S270M	-0.0147
Q159Y	0.116
Y100H	-1.01
F250Q	-0.831
F250Y	0.0779
F250M	-0.607
V107Y	-0.533
S490N	0.0157
S298T	0.00821
L229W	-0.0377
A63G	-0.0575
L72M	-0.732

Variant	8OG:A repair function score
L257Q	-0.72
R281M	-0.0676
N210D	-1.03
N210R	-1.03
E452N	-0.395
T228K	0.0779
Y121R	-0.993
S153F	0.0735
D96S	-0.15
D96A	-0.536
G70M	-0.00743
G70P	-0.126
C477E	-0.0756
Q498W	0.0137
F330A	-0.791
S227L	-0.119
S227Q	-0.0353
V48T	-0.0154
V48A	0.00435
V48S	-0.0148
D249A	-0.31
G293W	0.000227
T66E	0.00467
Q265L	-0.0663

Variant	8OG:A repair function score
T179Q	-0.0228
Q394M	-0.148
Q394A	0.04
L184N	-0.987
L184D	-1.16
L180R	-1.18
L180D	-1.1
T439A	0.0597
T439R	-0.0617
H420G	-0.0793
H420Q	-0.0915
H420N	-0.608
R398G	-0.102
A445M	-0.292
L325P	-0.354
P185V	-0.299
A354F	-0.0389
A354P	0.0108
R98S	-0.2
V348Y	-1.02
E303M	0.000479
K333T	-0.137
G479Y	0.025
V485Y	-0.0379

Variant	8OG:A repair function score
L360H	-1.17
T308Q	0.0017
T308F	-0.0849
E350F	-0.339
E350Y	-0.185
E350S	0.0422
E350R	-0.162
R491Q	-0.00572
F453A	-0.66
Y428W	0.228
R266I	-0.164
L290Y	-0.0918
W235R	-0.496
S292Y	0.00788
M478V	-0.00439
M478Y	0.0167
A212W	-0.596
A192M	-0.964
S231Y	-0.226
Q232R	0.171
S343P	-0.144
S343G	-0.00518
S343T	-0.0419
S343I	-0.0485

Variant	8OG:A repair function score
E90Y	-0.107
E90A	0.00572
V468P	-0.969
H57V	-0.613
P244I	-0.574
P44Y	-0.212
G401F	-0.16
E167C	-0.0723
T116F	-0.000589
E275F	0.0124
E385K	-0.468
N503D	-0.0599
P377R	-1.04
S138K	-0.105
L277N	-0.0739
R283F	-0.16
L241Q	-0.948
S276H	0.0172
S276W	-0.0968
S518N	0.00686
D502I	-0.0355
P317G	-0.0274
F200S	-0.54
H508K	-0.0603

Variant	8OG:A repair function score
R97W	-0.346
H454F	-0.268
H454I	-0.184
A196E	-0.674
A196D	-0.616
W447N	-0.921
W447T	-1.01
W447Y	-0.455
L149Q	-1.06
S419E	-0.583
A101K	-0.0477
L40A	0.139
G309E	0.02
C314W	-0.679
V117N	-1.21
V117H	-1.24
L109H	-0.619
P352T	0.0253
P352K	0.00765
T324P	-0.236
A194W	-1.05
L145M	0.00629
W75H	-0.412
